Results: patent publication US20250152742A1, “COMPOSITIONS AND METHODS FOR NEUROLOGICAL DISEASES” (Trames Bio, Inc., priority 2022, published 2025)

Assays:
Type in all cases: cell-based
[1] = system: engineered chimeric receptor SEQ ID NO: 33 and its mutants (human α7-nAChR ligand binding domain / human GlyRα1 ion pore domain) in Lenti-X 293T cells; experiment: YFP fluorescence quenching anion reporter plate reader assay (percent quench, EC50); conditions: for YFP fluorescence quenching using CNL001 (percent quench): receptor named in row; for YFP fluorescence quenching using Varenicline, 3 nM var: ligand Varenicline 3 nM; for YFP fluorescence quenching using Varenicline, 30 nM var: ligand Varenicline 30 nM; for YFP fluorescence quenching using Varenicline, 300 nM var: ligand Varenicline 300 nM; for YFP fluorescence quenching using Varenicline, 500 nM var: ligand Varenicline 500 nM; for YFP fluorescence quenching using Varenicline, 1 uM var: ligand Varenicline 1 uM
Outline: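 Lenti-X 293T cells co-expressing an anion-quenchable YFP were transiently transfected with receptor DNA, then ligand was added in NaI-substituted buffer (pH 7.2) after 30 min at 37 °C. Fluorescence was read about 2 min; percent quench = mean of last 10 s over 15 s pre-ligand baseline.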

rat hippocampal neurons [2] = experiment: Evoked rheobase shift, rat hippocampal neurons (current clamp)
Description: No holding current was applied to the membrane for cells included in the final datasets. Data acquisition settings and analysis methods were the same as for the DRG rheobase experiments.
Hippocampal neurons: Hippocampal rheobase experiments were performed in current clamp mode using a potassium-based internal solution containing (in mM): 115 potassium D-gluconate (G4500), 13 potassium chloride (P9333), 1 magnesium chloride hexahydrate (M2670), 5 magnesium ATP (A9187), 10 HEPES (54457), and 0.5 EGTA (3777) (pH=7.2 with potassium hydroxide, osmolarity=290-295 mOsm, calculated liquid junction potential=−14.9 mV. NBQX (10 μM) and AP5 (50 μM) were included in the bath to block excitatory synaptic transmission. To measure HC input resistance and rheobase, 500 ms current steps (−200 pA to 700 pA) were applied the membrane in the presence and absence of a compound. No holding current was applied to the membrane for cells included in the final datasets. Data acquisition settings and analysis methods were the same as for the DRG rheobase experiments.

rat hippocampal neurons [3] = experiment: Spontaneous action potential firing rate, hippocampal neurons (current clamp)
Description: Spontaneous activity was recorded in gapfree mode, in the presence and absence of a compound. Data were acquired at 10 kHz, with Bessel filter at 2 kHz and series resistance compensation at 100%. No holding current was applied to the membrane. […] For Clampfit, threshold-based event detection was run separately for each epoch to detect action potentials. For the custom Python code, a peak-finding package was used to automatically detect action potentials (SciPy). For both methods, minimum height, average height, maximum height were measured and frequency was calculated as the number of events in the epoch divided by the length of time of the epoch. For Clampfit, the resting membrane potential was measured at 3 points between events and averaged for each epoch. […] For both methods, membrane potential was corrected for the calculated liquid junction potential. […]
Hippocampal spontaneous action potential experiments: Hippocampal spontaneous action potentials were recorded in current clamp mode using a potassium-based internal solution containing (in mM): 115 potassium D-gluconate (G4500), 13 potassium chloride (P9333), 1 magnesium chloride hexahydrate (M2670), 5 magnesium ATP (A9187), 10 HEPES (54457), and 0.5 EGTA (3777) (pH=7.2, osmolarity=290-295 mOsm, calculated liquid junction potential=−14.9 mV). Spontaneous activity was recorded in gapfree mode, in the presence and absence of a compound. […]

B1: CODA1140: engineered receptor: R101F, L131N, S172D in SEQ ID NO: 33 (protein)
chain: MRCSPGGVWLALAASLLHVSLQGEFQRKLYKELVKNYNPLERPVANDSQPLTVYFSLSLLQIMDVDEKNQVLTTNIWLQMSWTDHYLQWNVSEYPGVKTVFFPDGQIWKPDILLYNSADERFDATFHTNVNVNSSGHCQYLPPGIFKSSCPMDLKNFPMDVQTCKLKFGSWDYGGWSLDLQMQEADISGYIPNGEWDLVGIPGKRSERFYECCKEPYPDVTFTVTMRRRMGYYLIQMYIPSLLIVILSWISFWINMDAAPARVGLGITTVLTMTTQSSGSRASLPKVSYVKAIDIWMAVCLLFVFSALLEYAAVNFVSRQHKELLRFRRKRRHHKSPMLNLFQEDEAGEGRFNFSAYGMGPACLQAKDGISVKGANNSNTTNPPPAPSKSPEEMRKLFIQRAKKIDKISRIGFPMAFLIFNMFYWIIYKIVRREDVHNQ
modifications: synthetic sequence of chimeric LGIC
[1]; 1 nM CNL001, first column so headed
  YFP fluorescence quenching using CNL001 (percent quench): 52.592%
[1]; 1 nM CNL001, second column so headed
  YFP fluorescence quenching using CNL001 (percent quench): 61.248%
[1]; 1 nM CNL002
  YFP fluorescence quenching (percent quench): 0.337%
[1]; 10 nM CNL001, first column so headed
  YFP fluorescence quenching using CNL001 (percent quench): 71.678%
[1]; 10 nM CNL001, second column so headed
  YFP fluorescence quenching using CNL001 (percent quench): 71.881%
[1]; 10 nM CNL002
  YFP fluorescence quenching (percent quench): 59.894%
[1]; 50 nM CNL001, first column so headed
  YFP fluorescence quenching using CNL001 (percent quench): 73.807%
[1]; 50 nM CNL001, second column so headed
  YFP fluorescence quenching using CNL001 (percent quench): 75.649%
[1]; 50 nM CNL002
  YFP fluorescence quenching (percent quench): 76.501%
[1]; 50 nM abt (ABT-126)
  YFP fluorescence quenching using ABT-126 (percent quench): −7.87%
[1]; 100 nM CNL001, first column so headed
  YFP fluorescence quenching using CNL001 (percent quench): 76%
[1]; 100 nM CNL001, second column so headed
  YFP fluorescence quenching using CNL001 (percent quench): 76.329%
[1]; 100 nM CNL002
  YFP fluorescence quenching (percent quench): 79.03%
[1]; 100 nM abt (ABT-126)
  YFP fluorescence quenching using ABT-126 (percent quench): −5.35%
[1]; 300 nM abt (ABT-126)
  YFP fluorescence quenching using ABT-126 (percent quench): −3.67%
[1]; 1 uM CNL001, first column so headed
  YFP fluorescence quenching using CNL001 (percent quench): 76.168%
[1]; 1 uM CNL001, second column so headed
  YFP fluorescence quenching using CNL001 (percent quench): 74.076%
[1]; 1 uM CNL002
  YFP fluorescence quenching (percent quench): 82.85%
[1]; 1 uM abt (ABT-126)
  YFP fluorescence quenching using ABT-126 (percent quench): 3.64%
[1]; 10 uM abt (ABT-126)
  YFP fluorescence quenching using ABT-126 (percent quench): 5.91%
[1]; 10 uM ach (acetylcholine)
  YFP fluorescence quenching (percent quench): −20.07%
[1]; 30 uM ach (acetylcholine)
  YFP fluorescence quenching (percent quench): −16.92%
[1]; 100 uM ach (acetylcholine)
  YFP fluorescence quenching (percent quench): −25.8%
[1]; 300 uM ach (acetylcholine)
  YFP fluorescence quenching (percent quench): −11.21%
[1]; 1 mM ach (acetylcholine)
  YFP fluorescence quenching (percent quench): 9.02%
[1]; 3 mM ach (acetylcholine)
  YFP fluorescence quenching (percent quench): 45%
[1]; first column
  YFP fluorescence quenching using Varenicline, 3 nM var: −6.169
  YFP fluorescence quenching using Varenicline, 30 nM var: −9.679
  YFP fluorescence quenching using Varenicline, 300 nM var: −9.572
  YFP fluorescence quenching using Varenicline, 500 nM var: −14.656
  YFP fluorescence quenching using Varenicline, 1 uM var: −13.996
[1]; second column
  YFP fluorescence quenching using Varenicline, 3 nM var: −10.445
  YFP fluorescence quenching using Varenicline, 30 nM var: −10.878
  YFP fluorescence quenching using Varenicline, 300 nM var: −8.873
  YFP fluorescence quenching using Varenicline, 500 nM var: −11.304
  YFP fluorescence quenching using Varenicline, 1 uM var: −16.128
Rat hippocampal neurons [2]; baseline, no ligand
  Rheobase Shift Evoked; Rat Hippocampal Neurons, Baseline: 40.63 ± 10.50 pA
Rat hippocampal neurons [2]; ligand CNL002 at EC90
  Rheobase Shift Evoked; Rat Hippocampal Neurons, +CNL002 @ EC90: 296.9 ± 72.65 pA
Rat hippocampal neurons [3]; baseline, no ligand
  Firing Rate Spontaneous; Rat Hippocampal Neurons, Baseline: 3.29 ± 0.75 Hz
Rat hippocampal neurons [3]; ligand CNL002 at EC90
  Firing Rate Spontaneous; Rat Hippocampal Neurons, +CNL002 @ EC90: 0.71 ± 0.29 Hz
